Starred links: 1 amine or outer side, 2 acyl side, 3 side chain; linkers in the order of their positions; H or OH if unused. Non-standard residues stand in square brackets, D forms with d. Groups on a side chain read outwards from the residue. No end group written: not given here. *: point of attachment. C18 diacid = O=C(O)CCCCCCCCCCCCCCCCC(=O)*; γGlu = O=C(O)[C@H](CCC(=O)[*:2])N[*:1]; AEEA = NCCOCCOCC(=O)O; Aib = CC(C)(N)C(=O)O
B1: SEQ ID NO: 112 (peptide)
peptide: IVLSLDVPIKLK([AEEA-AEEA-γGlu-C18 diacid])QILLKQERQKKQREKAETNKQILAQV-NH2
modifications: N-terminus assumed
SMILES: CC[C@H](C)[C@H](N)C(=O)N[C@H](C(=O)N[C@@H](CC(C)C)C(=O)N[C@@H](CO)C(=O)N[C@@H](CC(C)C)C(=O)N[C@@H](CC(=O)O)C(=O)N[C@H](C(=O)N1CCC[C@H]1C(=O)N[C@H](C(=O)N[C@@H](CCCCN)C(=O)N[C@@H](CC(C)C)C(=O)N[C@@H](CCCCNC(=O)COCCOCCNC(=O)COCCOCCNC(=O)CC[C@H](NC(=O)CCCCCCCCCCCCCCCCC(=O)O)C(=O)O)C(=O)N[C@@H](CCC(N)=O)C(=O)N[C@H](C(=O)N[C@@H](CC(C)C)C(=O)N[C@@H](CC(C)C)C(=O)N[C@@H](CCCCN)C(=O)N[C@@H](CCC(N)=O)C(=O)N[C@@H](CCC(=O)O)C(=O)N[C@@H](CCCNC(=N)N)C(=O)N[C@@H](CCC(N)=O)C(=O)N[C@@H](CCCCN)C(=O)N[C@@H](CCCCN)C(=O)N[C@@H](CCC(N)=O)C(=O)N[C@@H](CCCNC(=N)N)C(=O)N[C@@H](CCC(=O)O)C(=O)N[C@@H](CCCCN)C(=O)N[C@@H](C)C(=O)N[C@@H](CCC(=O)O)C(=O)N[C@H](C(=O)N[C@@H](CC(N)=O)C(=O)N[C@@H](CCCCN)C(=O)N[C@@H](CCC(N)=O)C(=O)N[C@H](C(=O)N[C@@H](CC(C)C)C(=O)N[C@@H](C)C(=O)N[C@@H](CCC(N)=O)C(=O)N[C@H](C(N)=O)C(C)C)[C@@H](C)CC)[C@@H](C)O)[C@@H](C)CC)[C@@H](C)CC)C(C)C)C(C)C
B2: SEQ ID NO: 110 (peptide)
peptide: IVLSLDVPIKLK([AEEA-AEEA-γGlu-C18 diacid])QILLKQERQK[Aib]QRQQAETNKQILAQV-NH2
modifications: N-terminus assumed
SMILES: CC[C@H](C)[C@H](N)C(=O)N[C@H](C(=O)N[C@@H](CC(C)C)C(=O)N[C@@H](CO)C(=O)N[C@@H](CC(C)C)C(=O)N[C@@H](CC(=O)O)C(=O)N[C@H](C(=O)N1CCC[C@H]1C(=O)N[C@H](C(=O)N[C@@H](CCCCN)C(=O)N[C@@H](CC(C)C)C(=O)N[C@@H](CCCCNC(=O)COCCOCCNC(=O)COCCOCCNC(=O)CC[C@H](NC(=O)CCCCCCCCCCCCCCCCC(=O)O)C(=O)O)C(=O)N[C@@H](CCC(N)=O)C(=O)N[C@H](C(=O)N[C@@H](CC(C)C)C(=O)N[C@@H](CC(C)C)C(=O)N[C@@H](CCCCN)C(=O)N[C@@H](CCC(N)=O)C(=O)N[C@@H](CCC(=O)O)C(=O)N[C@@H](CCCNC(=N)N)C(=O)N[C@@H](CCC(N)=O)C(=O)N[C@@H](CCCCN)C(=O)NC(C)(C)C(=O)N[C@@H](CCC(N)=O)C(=O)N[C@@H](CCCNC(=N)N)C(=O)N[C@@H](CCC(N)=O)C(=O)N[C@@H](CCC(N)=O)C(=O)N[C@@H](C)C(=O)N[C@@H](CCC(=O)O)C(=O)N[C@H](C(=O)N[C@@H](CC(N)=O)C(=O)N[C@@H](CCCCN)C(=O)N[C@@H](CCC(N)=O)C(=O)N[C@H](C(=O)N[C@@H](CC(C)C)C(=O)N[C@@H](C)C(=O)N[C@@H](CCC(N)=O)C(=O)N[C@H](C(N)=O)C(C)C)[C@@H](C)CC)[C@@H](C)O)[C@@H](C)CC)[C@@H](C)CC)C(C)C)C(C)C

Biological target: human corticotropin-releasing factor 2α (CRF2 α receptor) (human), Q13324
Assay: cell-based or functional assay

human corticotropin-releasing factor 2α (CRF2 α receptor) (human), Q13324, sequence (Q13324 20-411): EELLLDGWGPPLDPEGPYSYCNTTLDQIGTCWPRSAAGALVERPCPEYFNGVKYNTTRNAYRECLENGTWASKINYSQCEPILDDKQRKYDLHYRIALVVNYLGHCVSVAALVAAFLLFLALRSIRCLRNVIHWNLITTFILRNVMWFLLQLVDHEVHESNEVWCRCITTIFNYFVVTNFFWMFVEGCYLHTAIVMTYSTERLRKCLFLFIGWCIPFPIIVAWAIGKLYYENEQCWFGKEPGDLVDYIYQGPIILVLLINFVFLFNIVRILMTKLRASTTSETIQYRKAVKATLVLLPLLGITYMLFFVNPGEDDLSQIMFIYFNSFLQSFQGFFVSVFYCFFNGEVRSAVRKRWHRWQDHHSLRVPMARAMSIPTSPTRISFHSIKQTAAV

Binder | EC50 [nM], 0% HSA [nM] | EC50 [nM], 0.1% HSA [nM]
B1 | 0.66 | 68.9
B2 | 0.18 | 

Reference: patent US12679878B2, “CRF2 receptor agonists and their use in therapy” (SANOFI, priority 2020, dated 2026)
